Laboratory results as given in patent US20240343803A1 (SHANDONG SIMCERE BIOPHARMACEUTICAL, published 2024).
Positions count from the first letter of the chain named. Values belong to the binder of their own block, whether it stands above or below them.

Tests used:
[1] = target: T1, human PVRIG-his (AcroBiosystems, Cat NO. PVG-H52H4) (human, UniProt Q6DKI7 41-171, limits assumed); test: ELISA, antigen coated
T1 construct: also called human PVRIG protein
T1 sequence (looked up): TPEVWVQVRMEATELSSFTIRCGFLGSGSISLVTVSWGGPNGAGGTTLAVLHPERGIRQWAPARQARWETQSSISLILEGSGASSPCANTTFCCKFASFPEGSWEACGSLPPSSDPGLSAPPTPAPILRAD
Description: (§1) The ELISA plate was pre-coated with 100 μL/well of 0.5 μg/mL human PVRIG-his (AcroBiosystems, Cat NO. PVG-H52H4) or cynomolgus monkey PVRIG (Novoprotein, Cat NO. C09B). The tested anti-PVRIG humanized antibodies were serially diluted (initial concentration 3 nM, 3-fold serial dilution), added into the plate (100 μL/well) and incubated with shaking at room temperature for 1.5 hours. […] A HRP substrate, TMB (Thermo, Cat NO. 34029) was added into wells after washing the plate again for color development. After adding a termination solution to terminate the reaction, the absorbance value was read by a microplate reader (MD i3×). An antibody binding curve was drawn with concentration of antibodies as the abscissa and the corresponding OD value as the ordinate. The EC50 value was calculated by using a Four Parameter Logistic Fit (GraphPadPrism9). The smaller the EC50 value, the stronger the ability of the antibodies binds to human or cynomolgus monkey PVRIG. The binding effect of the humanized antibodies was normalized to the corresponding parental antibodies. If the percentage value is higher than 100%, the binding effect of humanized antibodies is better than that of parental antibody.

[2] = target: T2, cynomolgus monkey PVRIG (Novoprotein, Cat NO. C09B) (cynomolgus monkey, UniProt A0A2K5WVV8 41-171); test: ELISA, antigen coated
T2 construct: also called cynomolgus monkey PVRIG protein
T2 sequence: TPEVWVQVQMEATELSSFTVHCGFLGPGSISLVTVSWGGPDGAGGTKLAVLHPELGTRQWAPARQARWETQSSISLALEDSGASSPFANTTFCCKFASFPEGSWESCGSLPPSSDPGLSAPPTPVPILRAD
Description: as §1

[3] = target: T1, human PVRIG-his (AcroBiosystems, Cat …); test: competition ELISA, PVRIG-His coated, competitor human PVRL2-mFc; set-up: AUC: unit not given here
Description: The ELISA plate was pre-coated with 100 μL/well of 0.5 μg/mL human PVRIG-his protein (AcroBiosystems, Cat NO. PVG-H52H4). The tested anti-PVRIG antibodies were diluted from the highest concentration of 16 nM (two-fold concentration). The diluted antibodies were mixed with 18 ng/ml human PVRL2-mFc (AcroBiosystems, Cat NO. CD2-H5257) in equal volume, added into the plate (100 μL/well), and incubated with shaking at room temperature for 2.0 hours. […] A HRP substrate, TMB (Thermo, Cat NO. 34029) was added into wells after washing the plate again for color development. After adding a termination solution to terminate the reaction, the absorbance value was read by a microplate reader (MD i3×). An inhibiting curve was drawn with concentration of antibodies as the abscissa and the corresponding OD value as the ordinate. The IC50 value was calculated by using a Four Parameter Logistic Fit (GraphPadPrism9). The smaller the IC50 value, the stronger the ability of the antibodies inhibits the binding between PVRIG and PVRL2. The positive and negative controls are the same as in Example 8.
The methods refer to Example 11. The inhibiting activity of the humanized antibodies was normalized to the corresponding parental antibodies. If the percentage value is higher than 100%, the inhibiting effect of humanized antibodies is better than that of parental antibodies.

[4] = target: T1, human PVRIG-his (AcroBiosystems, Cat …); test: SPR (BIAcore), antibody captured on Protein A chip, human PVRIG-His analyte
Description: Biacore was used to detect the specific binding between anti-PVRIG antibody and human PVRIG protein. Protein A chip was used in the BIAcore assay. The time required for the chip to capture the diluted antibody and saturate the binding antigen to reach Rₘₐₓ (Maximum binding capacity, 50 RU) was measured by manual run. […] The affinity of antibody for antigen was measured by multi-cycle kinetics. In each cycle, the antibodies were injected prior to the injection of gradient concentraions of PVRIG proteins allowing the occurrence of antibody-antigen association and dissociation After each cycle, the Protein A chip was regenerated by Glycine, pH 1.5 (to remove the proteins on the chip). The affinity of antibody for antigen was calculated by BIAcore T200 analysis software.
The methods refer to Example 10.

B1: PVRIG-A105-H1 (Fc fusion)
chain: EVQLVESGGGLVQPGGSLRLSCAASGRTFDRHTMSWFRQAPGKEREFVATASRIPGDTYYVDSVKGRFTISRDNAKNSLYLQMNSLRAEDTAVYYCAATSAYCSEVDCYEKGSWYDNWGQGTMVTVSS
notes: humanized variant of PVRIG-A105; also called A105.VH1; not shown: constant part not restated for the humanized forms; parents are VHH-hinge-CH2-CH3 of human IgG1; detected by anti-human
% relative activity parental antibody/tested antibody [1]: 150%
EC50 [1]: 0.0487 nM
% relative activity parental antibody/tested antibody [2]: 107%
EC50 [2]: 0.0303 nM
% relative activity (AUC) parental antibody/test antibody [3]: 112%
% relative activity (IC50) parental antibody/test antibody [3]: 133%
AUC [3]: 2.27
IC50 [3]: 0.555 nM
Kd [4]: 0.932 nM
koff [4]: 0.0013 s⁻¹
kon [4]: 1.39e+06 M⁻¹ s⁻¹

B2: PVRIG-A105-H3 (Fc fusion)
chain: B1 chain with S35T, L79V
notes: humanized variant of PVRIG-A105; also called A105.VH3; not shown: constant part not restated for the humanized forms; parents are VHH-hinge-CH2-CH3 of human IgG1; detected by anti-human
% relative activity parental antibody/tested antibody [1]: 125%
EC50 [1]: 0.0585 nM
% relative activity parental antibody/tested antibody [2]: 91.7%
EC50 [2]: 0.0352 nM
% relative activity (AUC) parental antibody/test antibody [3]: 101%
% relative activity (IC50) parental antibody/test antibody [3]: 97.9%
AUC [3]: 2.52
IC50 [3]: 0.752 nM
Kd [4]: 0.622 nM
koff [4]: 0.000576 s⁻¹
kon [4]: 925000 M⁻¹ s⁻¹

B3: PVRIG-A105-H4 (Fc fusion)
chain: B1 chain with S35T, V61S, D62H
notes: humanized variant of PVRIG-A105; also called A105.VH4; not shown: constant part not restated for the humanized forms; parents are VHH-hinge-CH2-CH3 of human IgG1; detected by anti-human
% relative activity parental antibody/tested antibody [1]: 140%
EC50 [1]: 0.0521 nM
% relative activity parental antibody/tested antibody [2]: 89.4%
EC50 [2]: 0.0361 nM
% relative activity (AUC) parental antibody/test antibody [3]: 109%
% relative activity (IC50) parental antibody/test antibody [3]: 107%
AUC [3]: 2.32
IC50 [3]: 0.686 nM
Kd [4]: 0.796 nM
koff [4]: 0.000773 s⁻¹
kon [4]: 972000 M⁻¹ s⁻¹

B5: PVRIG-A118-H3 (Fc fusion)
chain: EVQLVESGGGLVQPGGSLRLSCAASETYFDLYVMGWYRQAPGKDRELVATITYTGSIKYVDSVKGRFTISRGDAKNSLYLQMNSLRAEDTAVYYCNADPSGLGRKVYWGQGTMVTVSS
notes: humanized variant of PVRIG-A118; also called A118.VH3; not shown: constant part not restated for the humanized forms; parents are VHH-hinge-CH2-CH3 of human IgG1; detected by anti-human
% relative activity parental antibody/tested antibody [1]: 100%
EC50 [1]: 0.05 nM
% relative activity parental antibody/tested antibody [2]: 34%
EC50 [2]: 0.0794 nM
% relative activity (AUC) parental antibody/test antibody [3]: 106%
% relative activity (IC50) parental antibody/test antibody [3]: 144%
AUC [3]: 1.49
IC50 [3]: 0.386 nM
Kd [4]: 1.35 nM
koff [4]: 0.00349 s⁻¹
kon [4]: 2.59e+06 M⁻¹ s⁻¹

B7: PVRIG-A118-H1 (Fc fusion)
chain: B5 chain with K58Y, G72D, D73N
notes: humanized variant of PVRIG-A118; also called A118.VH1; not shown: constant part not restated for the humanized forms; parents are VHH-hinge-CH2-CH3 of human IgG1; detected by anti-human
% relative activity parental antibody/tested antibody [1]: 110%
EC50 [1]: 0.0456 nM
% relative activity parental antibody/tested antibody [2]: 4.62%
EC50 [2]: 0.585 nM
% relative activity (AUC) parental antibody/test antibody [3]: 121%
% relative activity (IC50) parental antibody/test antibody [3]: 157%
AUC [3]: 1.31
IC50 [3]: 0.355 nM
Kd [4]: 0.478 nM
koff [4]: 0.000658 s⁻¹
kon [4]: 1.38e+06 M⁻¹ s⁻¹

B9: PVRIG-A118-H2 (Fc fusion)
chain: B5 chain with G72D, D73N
notes: humanized variant of PVRIG-A118; also called A118.VH2; not shown: constant part not restated for the humanized forms; parents are VHH-hinge-CH2-CH3 of human IgG1; detected by anti-human
% relative activity parental antibody/tested antibody [1]: 102%
EC50 [1]: 0.0491 nM
% relative activity parental antibody/tested antibody [2]: 4.55%
EC50 [2]: 0.594 nM
% relative activity (AUC) parental antibody/test antibody [3]: 117%
% relative activity (IC50) parental antibody/test antibody [3]: 156%
AUC [3]: 1.35
IC50 [3]: 0.357 nM
Kd [4]: 0.517 nM
koff [4]: 0.00082 s⁻¹
kon [4]: 1.59e+06 M⁻¹ s⁻¹

B11: PVRIG-A50-H1 (Fc fusion)
chain: EVQLVESGGGLVQPGGSLRLSCAASGFTFSYYDMSWVRQAPGKGLEWVSTINSNGGRTSYVDSVKGRFTISRDNSKNTLYLQMNSLRAEDTAVYYCVEGDPHNFGLENLSLRDFGSWGQGTMVTVSS
notes: humanized variant of PVRIG-A50; also called A50.VH1; not shown: constant part not restated for the humanized forms; parents are VHH-hinge-CH2-CH3 of human IgG1; detected by anti-human
% relative activity parental antibody/tested antibody [1]: 105%
EC50 [1]: 0.0871 nM
% relative activity parental antibody/tested antibody [2]: 95.1%
EC50 [2]: 0.13 nM
% relative activity (AUC) parental antibody/test antibody [3]: 82.6%
% relative activity (IC50) parental antibody/test antibody [3]: 77.5%
AUC [3]: 2.42
IC50 [3]: 1 nM
Kd [4]: 0.0362 nM
koff [4]: 1.48e-05 s⁻¹
kon [4]: 410000 M⁻¹ s⁻¹

B12: PVRIG-A50-H1d (Fc fusion)
chain: B11 chain with N108S
notes: humanized variant of PVRIG-A50; also called A50.VH1d; not shown: constant part not restated for the humanized forms; parents are VHH-hinge-CH2-CH3 of human IgG1; detected by anti-human
% relative activity parental antibody/tested antibody [1]: 118%
EC50 [1]: 0.0774 nM
% relative activity parental antibody/tested antibody [2]: 111%
EC50 [2]: 0.111 nM
% relative activity (AUC) parental antibody/test antibody [3]: 83.2%
% relative activity (IC50) parental antibody/test antibody [3]: 75%
AUC [3]: 2.4
IC50 [3]: 1.03 nM
Kd [4]: 0.0545 nM
koff [4]: 1.43e-05 s⁻¹
kon [4]: 262000 M⁻¹ s⁻¹

Results, then the binder that gave them:

% relative activity parental antibody/tested antibody [1]: 95.8%
EC50 [1]: 0.0522 nM
% relative activity parental antibody/tested antibody [2]: 37.1%
EC50 [2]: 0.0729 nM
% relative activity (AUC) parental antibody/test antibody [3]: 112%
% relative activity (IC50) parental antibody/test antibody [3]: 120%
AUC [3]: 1.42
IC50 [3]: 0.462 nM
Kd [4]: 1.21 nM
koff [4]: 0.00327 s⁻¹
kon [4]: 2.69e+06 M⁻¹ s⁻¹
B4: PVRIG-A118-H4 (Fc fusion)
chain: B5 chain with Y79S
notes: humanized variant of PVRIG-A118; also called A118.VH4; not shown: constant part not restated for the humanized forms; parents are VHH-hinge-CH2-CH3 of human IgG1; detected by anti-human

% relative activity parental antibody/tested antibody [1]: 90.8%
EC50 [1]: 0.0551 nM
% relative activity parental antibody/tested antibody [2]: 48.4%
EC50 [2]: 0.0559 nM
% relative activity (AUC) parental antibody/test antibody [3]: 108%
% relative activity (IC50) parental antibody/test antibody [3]: 132%
AUC [3]: 1.47
IC50 [3]: 0.422 nM
Kd [4]: 1.1 nM
koff [4]: 0.00299 s⁻¹
kon [4]: 2.71e+06 M⁻¹ s⁻¹
B6: PVRIG-A118-H6 (Fc fusion)
chain: B5 chain with Y59I
notes: humanized variant of PVRIG-A118; also called A118.VH6; not shown: constant part not restated for the humanized forms; parents are VHH-hinge-CH2-CH3 of human IgG1; detected by anti-human

% relative activity parental antibody/tested antibody [1]: 99.9%
EC50 [1]: 0.0501 nM
% relative activity parental antibody/tested antibody [2]: 33.1%
EC50 [2]: 0.0817 nM
% relative activity (AUC) parental antibody/test antibody [3]: 114%
% relative activity (IC50) parental antibody/test antibody [3]: 129%
AUC [3]: 1.38
IC50 [3]: 0.43 nM
Kd [4]: 1.08 nM
koff [4]: 0.0026 s⁻¹
kon [4]: 2.41e+06 M⁻¹ s⁻¹
B8: PVRIG-A118-H7 (Fc fusion)
chain: B5 chain with Y94F
notes: humanized variant of PVRIG-A118; also called A118.VH7; not shown: constant part not restated for the humanized forms; parents are VHH-hinge-CH2-CH3 of human IgG1; detected by anti-human

% relative activity parental antibody/tested antibody [1]: 104%
EC50 [1]: 0.0481 nM
% relative activity parental antibody/tested antibody [2]: 40.2%
EC50 [2]: 0.0673 nM
% relative activity (AUC) parental antibody/test antibody [3]: 114%
% relative activity (IC50) parental antibody/test antibody [3]: 146%
AUC [3]: 1.39
IC50 [3]: 0.381 nM
Kd [4]: 1.37 nM
koff [4]: 0.00383 s⁻¹
kon [4]: 2.79e+06 M⁻¹ s⁻¹
B10: PVRIG-A118-H5 (Fc fusion)
chain: B5 chain with L78V
notes: humanized variant of PVRIG-A118; also called A118.VH5; not shown: constant part not restated for the humanized forms; parents are VHH-hinge-CH2-CH3 of human IgG1; detected by anti-human
